The results in this text go back to publication doi:10.1101/2024.12.30.629670.

This assay deals with AVRPM3^b2/c2 lacking the signal peptide, C-terminally FLAG- or HA-tagged (Blumeria graminis f.sp. tritici). Briefly: cross-linking.

Where “and” joins values, the source holds several entries; their conditions need not be identical. Equal entries are not always repeated.

As for “AVRPM3^b2/c2 lacking the signal peptide, C-terminally FLAG- or HA-tagged (natural protein)”, the stoichiometry N was 2 and 3.

For orientation: stoichiometry N means a count of units in the complex or per binding partner.
